{
  "source": "paper PMC12692541",
  "test_system": "HalTzlAAA homotrinucleopeptide (synthetic (designed))",
  "experiment": "fluorescence anisotropy",
  "conditions": "none (unmodified); TB (tris/borate) buffer, 25 °C, 20 min incubation; RNA refolded at 90 °C for 5 min; salt and pH not given in the material",
  "data": [
    {"sequence": "GCAGACUUUUAAUCUGC [ASLLys3]", "values": [
      {"measurement": "Kd", "value": 75.3, "unit": "µM"}
    ]}
  ]
}
